In patent US20170022287A1 one finds Ratio with respect to Non-Coating and ELISA color development level data, which are given here for six molecules.

For experiment [1], the target named is CRD1-2. In words: ELISA, coated CD137-Fc protein 2 µg/mL, antibody 10 or 5 µg/mL; absorbance 620 nm divided by that of the uncoated well.
Experiment [2] has as its target CRD1-3. The experiment is described as above.
Experiment [3] deals with CRD2-3. The experiment is described as above.
The target in experiment [4] is CRD1. Described as above.
In experiment [5] the target is CRD2-4. The experiment is described as above.
Experiment [6] deals with CRD3-4. Described as above.
Experiment [7] has as its target CRD1-2. Put plainly: ELISA, coated CD137-Fc protein 2 µg/mL, antibody 10 or 5 µg/mL, absorbance 620 nm; Non (uncoated well) 1.146.
The target in experiment [8] is CRD1-3. Described as above.
The target of experiment [9] is CRD2-3. The description is as above.
For experiment [10], the target named is CRD1. The description is as above.
Experiment [11] addresses CRD2-4. The description is as above.
Experiment [12] concerns the target CRD3-4. The experiment is described as above.
Experiment [13] addresses full-length human CD137-Fc fusion protein (human). In words: ELISA, coated CD137-Fc protein 2 µg/mL, antibody 10 or 5 µg/mL; absorbance 620 nm divided by that of the uncoated well.
For experiment [14] the target is unchanged. In words: ELISA, coated CD137-Fc protein 2 µg/mL, antibody 10 or 5 µg/mL, absorbance 620 nm; Non (uncoated well) 1.114.
Experiment [15] concerns the target CRD1-3. The description is as above.
Experiment [16] concerns the target CRD2-3. Described as above.
The target of experiment [17] is CRD2-4. Described as above.
Experiment [18] addresses CRD3-4. The description is as above.
Experiment [19] addresses CRD1-2. In words: ELISA, coated CD137-Fc protein 2 µg/mL, antibody 10 or 5 µg/mL, absorbance 620 nm; Non (uncoated well) 2.2055.
The target in experiment [20] is CRD1-3. The experiment is described as above.
Experiment [21] concerns the target CRD2-3. Described as above.
Experiment [22] concerns the target CRD1. Described as above.
Experiment [23] has as its target CRD2-4. Described as above.
Experiment [24] deals with CRD3-4. Described as above.
The target in experiment [25] is CRD1-2. In words: ELISA, coated CD137-Fc protein 2 µg/mL, antibody 10 or 5 µg/mL, absorbance 620 nm; Non (uncoated well) 2.0265.
Experiment [26] has as its target CRD1-3. The experiment is described as above.
Experiment [27] concerns the target CRD2-3. The experiment is described as above.
Experiment [28] has as its target CRD1. The experiment is described as above.
Experiment [29] has as its target CRD2-4. Described as above.
Experiment [30] has as its target CRD3-4. The experiment is described as above.
The target in experiment [31] is CRD1-3. In words: ELISA, coated CD137-Fc protein 2 µg/mL, antibody 10 or 5 µg/mL, absorbance 620 nm; Non (uncoated well) 0.065.
Experiment [32] deals with full-length human CD137-Fc fusion protein (human). In words: ELISA, coated CD137-Fc protein 2 µg/mL, antibody 10 or 5 µg/mL, absorbance 620 nm; Non (uncoated well) 0.202.
full-length human CD137-Fc fusion protein (human), sequence (chain, as listed by the source limits assumed): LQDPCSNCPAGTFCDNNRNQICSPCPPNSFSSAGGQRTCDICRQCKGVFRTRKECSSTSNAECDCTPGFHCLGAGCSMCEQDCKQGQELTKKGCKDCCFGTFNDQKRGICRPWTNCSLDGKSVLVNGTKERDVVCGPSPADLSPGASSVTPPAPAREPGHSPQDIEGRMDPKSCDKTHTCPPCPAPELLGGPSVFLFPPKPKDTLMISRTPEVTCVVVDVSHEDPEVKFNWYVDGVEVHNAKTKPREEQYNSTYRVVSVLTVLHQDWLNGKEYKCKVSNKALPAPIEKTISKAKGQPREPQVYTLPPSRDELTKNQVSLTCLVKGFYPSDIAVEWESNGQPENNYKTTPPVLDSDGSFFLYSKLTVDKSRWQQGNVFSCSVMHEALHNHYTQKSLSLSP

CRD2-3, sequence (chain, as listed by the source limits assumed): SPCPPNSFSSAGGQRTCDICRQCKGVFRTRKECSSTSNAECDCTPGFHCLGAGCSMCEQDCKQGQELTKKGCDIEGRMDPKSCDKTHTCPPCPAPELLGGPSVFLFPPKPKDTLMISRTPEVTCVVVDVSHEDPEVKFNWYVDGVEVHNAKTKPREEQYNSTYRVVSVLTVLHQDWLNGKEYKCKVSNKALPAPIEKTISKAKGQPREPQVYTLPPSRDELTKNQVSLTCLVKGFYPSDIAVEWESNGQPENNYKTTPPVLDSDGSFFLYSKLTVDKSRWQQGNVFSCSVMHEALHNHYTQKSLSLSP
CRD1-3, sequence (chain, as listed by the source limits assumed): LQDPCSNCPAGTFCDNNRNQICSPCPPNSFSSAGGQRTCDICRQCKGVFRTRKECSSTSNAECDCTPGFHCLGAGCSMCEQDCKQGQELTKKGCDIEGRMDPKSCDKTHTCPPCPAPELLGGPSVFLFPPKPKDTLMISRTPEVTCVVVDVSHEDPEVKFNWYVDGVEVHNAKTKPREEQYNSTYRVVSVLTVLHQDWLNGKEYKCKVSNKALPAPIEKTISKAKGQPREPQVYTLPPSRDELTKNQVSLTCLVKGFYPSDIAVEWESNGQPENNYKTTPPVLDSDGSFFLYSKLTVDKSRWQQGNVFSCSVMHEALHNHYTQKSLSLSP
CRD1, sequence (chain, as listed by the source limits assumed): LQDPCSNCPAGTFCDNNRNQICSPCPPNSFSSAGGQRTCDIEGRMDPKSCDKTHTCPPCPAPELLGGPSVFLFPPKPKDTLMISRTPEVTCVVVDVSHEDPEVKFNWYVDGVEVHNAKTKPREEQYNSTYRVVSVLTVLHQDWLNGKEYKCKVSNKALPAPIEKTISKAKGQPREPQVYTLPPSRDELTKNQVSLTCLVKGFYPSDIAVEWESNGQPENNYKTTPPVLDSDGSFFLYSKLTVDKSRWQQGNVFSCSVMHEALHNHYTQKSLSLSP
CRD3-4, sequence (chain, as listed by the source limits assumed): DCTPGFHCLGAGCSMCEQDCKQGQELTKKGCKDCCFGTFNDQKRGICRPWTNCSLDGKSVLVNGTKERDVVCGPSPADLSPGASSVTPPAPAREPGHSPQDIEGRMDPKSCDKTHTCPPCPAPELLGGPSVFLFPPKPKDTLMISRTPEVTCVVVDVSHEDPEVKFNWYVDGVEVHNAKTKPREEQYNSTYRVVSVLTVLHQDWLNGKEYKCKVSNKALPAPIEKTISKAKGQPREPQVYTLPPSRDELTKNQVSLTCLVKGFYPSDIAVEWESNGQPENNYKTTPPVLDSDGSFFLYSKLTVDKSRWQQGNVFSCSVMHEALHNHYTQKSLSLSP
CRD1-2, sequence (chain, as listed by the source limits assumed): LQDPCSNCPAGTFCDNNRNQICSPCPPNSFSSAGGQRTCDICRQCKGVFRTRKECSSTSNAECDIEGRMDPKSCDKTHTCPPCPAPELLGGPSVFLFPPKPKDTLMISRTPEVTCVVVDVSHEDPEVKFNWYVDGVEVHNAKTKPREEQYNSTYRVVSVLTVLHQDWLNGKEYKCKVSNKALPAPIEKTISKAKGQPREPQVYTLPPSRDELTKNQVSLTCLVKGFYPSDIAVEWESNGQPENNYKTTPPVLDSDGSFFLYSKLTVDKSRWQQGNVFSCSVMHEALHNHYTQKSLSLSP
CRD2-4, sequence (chain, as listed by the source limits assumed): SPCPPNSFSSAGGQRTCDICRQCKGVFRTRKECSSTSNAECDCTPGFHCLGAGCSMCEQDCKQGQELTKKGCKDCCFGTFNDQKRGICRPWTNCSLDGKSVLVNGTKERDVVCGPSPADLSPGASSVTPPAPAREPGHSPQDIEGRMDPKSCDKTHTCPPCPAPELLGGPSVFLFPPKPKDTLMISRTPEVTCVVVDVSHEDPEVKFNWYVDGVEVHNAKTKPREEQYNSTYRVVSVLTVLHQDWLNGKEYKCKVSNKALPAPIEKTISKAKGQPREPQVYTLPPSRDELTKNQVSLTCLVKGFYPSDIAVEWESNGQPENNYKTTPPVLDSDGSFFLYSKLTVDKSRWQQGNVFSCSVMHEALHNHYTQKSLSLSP

B1: R13 (antibody, V domains shown)
VH: QVQLVESGGGLVQPGGSLRLSCAASGFTFSYYDIQWVRQAPGKGLEWVSSISPSGQSTYYRREVKGRFTISRDNSKNTLYLQMNSLRAEDTAVYYCARRTGREYGGGWYFDYWGQGTLVTVSS
VL: DIQMTQSPSSLSASVGDRVTITCRASQSISSYLNWYQQKPGKAPKLLIYAASSLQSGVPSRFSGSGSGTDFTLTISSLQPEDFATYYCQQFSRFPLTFGGGTKVEIK
In the case of B1, the Ratio with respect to Non-Coating is 0.4 with CRD1-2 [1]; 0.7 with CRD1-3 [2]; 0.5 in the experiment with CRD2-3 [3]; 0.5 in the experiment with CRD1 [4]; 0.4 with CRD2-4 [5]; 0.2 with CRD3-4 [6]. The ELISA color development level in the experiment with CRD1-2 [7] turned out to be 0.45; with CRD1-3 [8] it was 0.787; in the experiment with CRD2-3 [9] it was 0.555; with CRD1 [10] it was 0.601; in the experiment with CRD2-4 [11], 0.455; in the experiment with CRD3-4 [12], 0.26.

B2: R8 (antibody, V domains shown)
VH: QVQLQESGPGLVKPSETLSLTCAVSGYSISSGYYWGWIRQPPGKGLEWIGSIYHSGSTYYNPSLKSRVTISVDTSKNQFSLKLSSVTAADTAVYYCARQHSFTRYYGYYYFDYWGQGTTVTVSS
VL: DIQMTQSPSSLSASVGDRVTITCRASQSISSYLNWYQQKPGKAPKLLIYAASSLQSGVPSRFSGSGSGTDFTLTISSLQPEDFATYYCLQSDSIPLTFGGGTKVEIK
Take B2: the Ratio with respect to Non-Coating in experiment [13] is 1.9; with CRD1-3 [2] it was 2; in the experiment with CRD2-3 [3] it was 2.2; with CRD2-4 [5], 2; with CRD3-4 [6], 2.3. Moreover, the ELISA color development level was found to be 2.09 in experiment [14]; 2.25 in the experiment with CRD1-3 [15]; 2.42 in the experiment with CRD2-3 [16]; 2.23 in the experiment with CRD2-4 [17]; 2.52 with CRD3-4 [18].

B3: R14 (antibody, V domains shown)
VH: QVQLLESGGGLVQPGGSLRLSCAASGFTFSSYAMSWVRQAPGKGLEWVSAISGSGGSTYYADSVKGRFTISRDNSKNTLYLQMNSLRAEDTAVYYCARDKWYYYPALDYWGQGTLVTVSS
VL: DIQMTQSPSSLSASVGDRVTITCRASQSISSYLNWYQQKPGKAPKLLIYAASSLQSGVPSRFSGSGSGTDFTLTISSLQPEDFATYYCLQVYRSPLTFGGGTKVEIK
For B3, the Ratio with respect to Non-Coating in the experiment with CRD1-2 [1] is 0.8; with CRD1-3 [2] it was 1.1; with CRD2-3 [3], 1.2; with CRD1 [4], 0.7; in the experiment with CRD2-4 [5], 1; with CRD3-4 [6] it was 1.3. In addition, the ELISA color development level with CRD1-2 [19] worked out at 1.7; with CRD1-3 [20] it was 2.42; with CRD2-3 [21], 2.72; with CRD1 [22], 1.64; with CRD2-4 [23] it was 2.21; in the experiment with CRD3-4 [24] it was 2.76.

B4: R11 (antibody, V domains shown)
VH: QVQLLESGGGLVQPGGSLRLSCAASGFTFSSYAMSWVRQAPGKGLEWVSAISGSGGSTYYADSVKGRFTISRDNSKNTLYLQMNSLRAEDTAVYYCARDKWYYYPALDYWGQGTLVTVSS
VL: DIQMTQSPSSLSASVGDRVTITCRASQSISSYLNWYQQKPGKAPKLLIYAASSLQSGVPSRFSGSGSGTDFTLTISSLQPEDFATYYCQQFSRFPLTFGGGTKVEIK
B4: the Ratio with respect to Non-Coating came out at 0.8 in the experiment with CRD1-2 [1]; 1.2 with CRD1-3 [2]; 1.3 in the experiment with CRD2-3 [3]; 0.9 with CRD1 [4]; 1.1 in the experiment with CRD2-4 [5]; 1.4 with CRD3-4 [6]. Moreover, the ELISA color development level worked out at 1.69 with CRD1-2 [25]; 2.45 in the experiment with CRD1-3 [26]; 2.73 with CRD2-3 [27]; 1.82 in the experiment with CRD1 [28]; 2.3 in the experiment with CRD2-4 [29]; 2.88 in the experiment with CRD3-4 [30].

B5: R1 (antibody, V domains shown)
VH: EVQLVQSGAEVKKPGASVKVSCKASGYTFTSYYTHWVRQAPGQGLEWMGIINPSGGSTSYAQKFQGRVTMTRDTSTSTVYMELSSLRSEDTAVYYCARGAPEYSSSSDYWGQGTMVTVSS
VL: QSALTQPASVSGSPGQSITISCTGTSSDVGGYNYVSWYQQHPGKAPKLMIYDVSNRPSGVSNRFSGSKSGNTASLTISGLQAEDEADYYCSSYTSSSTRWVFGGGTKLTVL
Turning to B5, the Ratio with respect to Non-Coating with CRD1-3 [2] was determined as 7.3. The same molecule had an ELISA color development level with CRD1-3 [31] of 0.473.

B6: R2 (antibody, V domains shown)
VH: EVQLQESGPGLVKPSETLSLTCTVSGGSISSSSYYWGWIRQPPGKGLEWIGSIHYTGSTYYNPSLKSRVTISVDTSKNQFSLKLSSVTAADTAVYYCARLNPSIAARPGAFDIWGQGTMVTVSS
VL: QSVLTQPPSVSAAPGQKVTISCSGSSSNIANNFVSWFQQLPGTAPKLLIYDNNKRPSGIPDRFSGSKSGTSATLGITGLQTGDEADYYCGTWDRSLSAGVFGGGTKVTVL
Take B6: in [13], the Ratio with respect to Non-Coating came to 1. The ELISA color development level in [32] came out at 0.205.
